Tests used:
[1] = Western blot of concentrated culture supernatant vs lysate; conditions: glycan lost; control: wild type
[2] = Western blot of 293T cell lysates; conditions: glycan lost; control: wild type

B1: Procollagen C-proteinase enhancer protein (PCOLCE): N29Q (protein)
parent chain: MLPAATASLLGPLLTACALLPFAQGQTPNYTRPVFLCGGDVKGESGYVASEGFPNLYPPNKECIWTITVPEGQTVSLSFRVFDLELHPACRYDALEVFAGSGTSGQRLGRFCGTFRPAPLVAPGNQVTLRMTTDEGTGGRGFLLWYSGRATSGTEHQFCGGRLEKAQGTLTTPNWPESDYPPGISCSWHIIAPPDQVIALTFEKFDLEPDTYCRYDSVSVFNGAVSDDSRRLGKFCGDAVPGSISSEGNELLVQFVSDLSVTADGFSASYKTLPRGTAKEGQGPGPKRGTEPKVKLPPKSQPPEKTEESPSAPDAPTCPKQCRRTGTLQSNFCASSLVVTATVKSMVREPGEGLAVTVSLIGAYKTGGLDLPSPPTGASLKFYVPCKQCPPMKKGVSYLLMGQVEENRGPVLPPESFVVLHRPNQDQILTNLSKRKCPSQPVRAAASQD
With B1 as the protein, how does the expression_or_secretion [1] read?
Its expression_or_secretion is “decreases”.

What about the expression_or_secretion [2] of the same protein?
Its expression_or_secretion is “decreases”.

— paper PMC6599655
